Source: patent US20240350597A1, “PROTEASE INHIBITORS” (University College Dublin, priority 2023, published 2024)

Molecular target: Cathepsin L (UniProt P07711)
Assay: cell-based or functional assay

- CatL inhibition (residual activity on Z-FR-AMC after 2 min incubation with serpin, 1:5 protease:serpin): 95%
Substance: Wild Type SerpinB3 (from UniProt P29508 1-390)
